Positions count from the first letter of the chain named.
B1: Mutation 1-46 (antibody, V domains shown)
VH: QVQLQQPGAELVKPGASVRLSCQTSVDTFSTYYIYWVKQRPGEGLEWIGGLNPTSGGPVFNEKFKSKATLTVDTSSSTAYMQLSSLTSVDSAVYYCTRSIVRRGYYFDYWGQGTALTVSS
VL: DIQMTQTTSSLSASLGDRVTISCRASQDIQNYINWYQQKPDGTIKLLIYYTSRLNSGIPSRFSGSGSGTDYSLTIANLEQEDIATYFCQQDDTIPITFGAGTKVELKR
notes: Mutation 1 background; CDRs built
B2: Mutation 1-25 (antibody, V domains shown)
VH: B1 VH with D27E, S30T, L51I, I100L
VL: B1 VL with Q30N, I33V, N55H, I58L, I94L
notes: as for B1
B3: Mutation 1-14 (antibody, V domains shown)
VH: QVQLQQPGAELVKPGASVRLSCQTSVETFSTYYIYWVKQRPGEGLEWIGGLNPTSNPVFNEKFKSKATLTVDTSSSTAYMQLSSLTSVDSAVYYCTRSVIRRGYYFDYWGQGTALTVSS
VL: B1 VL with I33L, N55H, I58L, I94V, I96L
notes: as for B1
B4: Mutation 1-51 (antibody, V domains shown)
VH: B1 VH with D27N, S30T, L51I, I100L, V101L
VL: B1 VL with Q30N, I33L, N55H, I58V, I94L, I96L
notes: as for B1
B5: Mutation 1-8 (antibody, V domains shown)
VH: B3 VH with V99L
VL: B1 VL with I33L, I58L, I94L, I96L
notes: as for B1
B6: Mutation 1-55 (antibody, V domains shown)
VH: B1 VH with L51V
VL: B1 VL with Q30N, I33V
notes: as for B1
B7: Mutation 1-15 (antibody, V domains shown)
VH: B1 VH with D27E, S30T, L51V, I100L, V101L
VL: B1 VL with Q30N, I33L, I94L, I96V
notes: as for B1
B8: Mutation 1-38 (antibody, V domains shown)
VH: B1 VH with D27N, L51V, V101I
VL: B1 VL with I33L, I96L
notes: as for B1
B9: Mutation 1-49 (antibody, V domains shown)
VH: B3 VH with S30T, I100V
VL: B1 VL with Q30N, I33V, N55Q, I94V
notes: as for B1
B10: Mutation 1-9 (antibody, V domains shown)
VH: B1 VH with D27E, S30T, L51V, V101L
VL: B1 VL with Q30N, I33L, N55Q, I96V
notes: as for B1
B11: Mutation 1-56 (antibody, V domains shown)
VH: B1 VH with S30T, L51I, V101I
VL: B1 VL with I33L, I58L, I96L
notes: as for B1
B12: Mutation 1-35 (antibody, V domains shown)
VH: B3 VH with E27D, S30T, L51V, V99L
VL: B1 VL with Q30N, I58L, I94L, I96V
notes: as for B1
B13: Mutation 1-45 (antibody, V domains shown)
VH: B1 VH with D27N, S30T, L51I, V101L
VL: B1 VL with Q30N, I33L, I58V, I96L
notes: as for B1
B14: Mutation 1-37 (antibody, V domains shown)
VH: B3 VH with S30T, V99I, I100V
VL: B1 VL with Q30N, I33V, N55H
notes: as for B1
B15: Mutation 1-11 (antibody, V domains shown)
VH: B1 VH with D27N, S30T, V101I
VL: B1 VL with Q30N, N55Q, I58L, I96L
notes: as for B1
B16: Mutation 1-26 (antibody, V domains shown)
VH: B1 VH with D27N, I100L, V101I
VL: B1 VL with I33L, I58L, I94L, I96L
notes: as for B1
B17: Mutation 1-13 (antibody, V domains shown)
VH: B3 VH with E27D, S30T, L51I, I100V
VL: B1 VL with Q30N, I33V, N55H, I58V, I94V
notes: as for B1
B18: Mutation 1-41 (antibody, V domains shown)
VH: B3 VH with E27D, S30T, L51V
VL: B1 VL with Q30N, I58V, I94V, I96V
notes: as for B1
B19: Mutation 1-58 (antibody, V domains shown)
VH: B3 VH with S30T, L51I, I100V
VL: B1 VL with N55Q, I94V
notes: as for B1
B20: Mutation 1-53 (antibody, V domains shown)
VH: B3 VH with E27N, L51I, V99L
VL: B1 VL with Q30N, N55H, I58L, I94L, I96V
notes: as for B1
B21: Mutation 1-29 (antibody, V domains shown)
VH: B3 VH with S30T, V99I
VL: B1 VL with Q30N, I96V
notes: as for B1
B22: Mutation 1-59 (antibody, V domains shown)
VH: B3 VH with E27N
VL: B1 VL with Q30N, N55Q, I58L, I94V, I96L
notes: as for B1
B23: Mutation 1-3 (antibody, V domains shown)
VH: B1 VH with D27E, S30T, L51V, I100V, V101L
VL: B1 VL with Q30N, I33L, N55H, I94V, I96V
notes: as for B1
B24: Mutation 1-7 (antibody, V domains shown)
VH: B3 VH with E27D, S30T, L51I, V99L, I100V
VL: B1 VL with Q30N, I33V, I58V, I94L
notes: as for B1
B25: Mutation 1-44 (antibody, V domains shown)
VH: B1 VH with D27N, L51V, I100L, V101I
VL: B1 VL with I33L, I58L, I94L, I96V
notes: as for B1
B26: Mutation 1-43 (antibody, V domains shown)
VH: B3 VH with S30T, V99L, I100V
VL: B1 VL with Q30N, I33V, N55H, I58L, I94L
notes: as for B1
B27: Mutation 1-33 (antibody, V domains shown)
VH: B1 VH with D27E, L51I, I100L, V101L
VL: B1 VL with Q30N, I33L, N55Q, I58L, I94L, I96L
notes: as for B1
B28: Mutation 1-24 (antibody, V domains shown)
VH: B1 VH with D27E, L51V, I100L, V101L
VL: B1 VL with I33V, N55Q, I58L, I94L, I96V
notes: as for B1
B29: Mutation 1-50 (antibody, V domains shown)
VH: B1 VH with D27N, L51V, I100V, V101I
VL: B1 VL with I33L, N55Q, I58L, I94V, I96V
notes: as for B1
B30: Mutation 1-60 (antibody, V domains shown)
VH: B1 VH with D27N, S30T, L51V, I100L, V101L
VL: B1 VL with N55H, I58V, I94L, I96V
notes: as for B1
B31: Mutation 1-52 (antibody, V domains shown)
VH: B1 VH with D27E, S30T, I100L
VL: B1 VL with N55H, I94L
notes: as for B1

molecular target: T1, Taq DNA polymerase (Thermus aquaticus, UniProt P19821 1-832); experiment: AMC sensor, antibody immobilised
T1 construct: also called Taq enzyme; Taq DNA enzyme
T1 sequence (P19821 whole entry): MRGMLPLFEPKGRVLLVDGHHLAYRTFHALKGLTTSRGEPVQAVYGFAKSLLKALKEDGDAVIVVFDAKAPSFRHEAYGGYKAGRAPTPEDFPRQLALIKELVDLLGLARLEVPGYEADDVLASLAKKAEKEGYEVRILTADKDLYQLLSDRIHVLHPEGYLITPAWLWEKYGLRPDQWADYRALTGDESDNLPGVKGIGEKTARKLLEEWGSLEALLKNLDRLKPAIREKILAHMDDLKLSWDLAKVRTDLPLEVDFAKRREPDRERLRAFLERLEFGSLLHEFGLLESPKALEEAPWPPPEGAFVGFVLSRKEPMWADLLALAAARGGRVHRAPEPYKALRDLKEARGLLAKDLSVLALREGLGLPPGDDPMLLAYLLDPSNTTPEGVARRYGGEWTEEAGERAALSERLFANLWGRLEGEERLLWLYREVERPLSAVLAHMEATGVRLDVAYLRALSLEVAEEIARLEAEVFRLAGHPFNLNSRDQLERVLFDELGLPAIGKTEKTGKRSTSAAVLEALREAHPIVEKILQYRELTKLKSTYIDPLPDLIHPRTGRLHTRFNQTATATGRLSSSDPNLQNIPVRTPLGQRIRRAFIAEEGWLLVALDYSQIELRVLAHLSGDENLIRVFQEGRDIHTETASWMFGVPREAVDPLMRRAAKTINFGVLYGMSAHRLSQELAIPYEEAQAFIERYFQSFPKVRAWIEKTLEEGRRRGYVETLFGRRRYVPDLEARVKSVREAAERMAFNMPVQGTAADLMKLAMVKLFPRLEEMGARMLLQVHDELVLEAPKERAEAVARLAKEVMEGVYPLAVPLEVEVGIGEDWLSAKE

| Kd [nM] | koff [s⁻¹] | kon [M⁻¹ s⁻¹] | Binder |
| --- | --- | --- | --- |
| 0.655 | 2.87e-05 | 43800 | B1 |
| 0.678 | 4.57e-05 | 67300 | B2 |
| 0.229 | 1.92e-05 | 84100 | B3 |
| 0.384 | 3.77e-05 | 98300 | B4 |
| 0.0343 | 1.64e-06 | 47600 | B5 |
| 0.173 | 1.12e-05 | 64400 | B6 |
| 0.12 | 5.72e-06 | 47600 | B7 |
| 0.106 | 3.32e-06 | 31400 | B8 |
| 0.198 | 1.71e-05 | 86100 | B9 |
| 0.926 | 7.28e-05 | 78600 | B10 |
| 0.914 | 3.79e-05 | 41500 | B11 |
| 0.706 | 3.7e-05 | 52400 | B12 |
| 0.0582 | 3.07e-06 | 52600 | B13 |
| 0.382 | 2.68e-05 | 70200 | B14 |
| 0.613 | 3.06e-05 | 50000 | B15 |
| 0.852 | 2.89e-05 | 34000 | B16 |

| Kd [nM] | koff [s⁻¹] | kon [M⁻¹ s⁻¹] | Binder |
| --- | --- | --- | --- |
| 0.407 | 2.52e-05 | 61700 | B17 |
| 0.297 | 9.82e-06 | 33100 | B18 |
| 0.178 | 1.34e-05 | 75000 | B19 |
| 0.384 | 3.8e-05 | 99000 | B20 |
| 0.0314 | 1.13e-06 | 36100 | B21 |
| 0.0507 | 3.06e-06 | 60400 | B22 |
| 0.367 | 1.54e-05 | 42000 | B23 |
| 0.599 | 2.45e-05 | 41000 | B24 |
| 0.0133 | 4.9e-06 | 369000 | B25 |
| 0.971 | 6.92e-05 | 71200 | B26 |
| 0.926 | 3.94e-05 | 42600 | B27 |
| 0.199 | 1.12e-05 | 56400 | B28 |
| 0.593 | 3.02e-05 | 50800 | B29 |
| 0.0314 | 2.66e-06 | 84600 | B30 |
| 0.698 | 2.37e-05 | 34000 | B31 |
